Results from publication PMC7844235, “Redirecting substrate regioselectivity using engineered ΔN123-GBD-CD2 branching sucrases for the production of pentasaccharide repeating units of S. flexneri 3a, 4a and 4b haptens” (Scientific Reports, 2021).

B1: ΔN123-GBD-CD2 branching sucrase (Leuconostoc mesenteroides) (protein)
chain: QAGHYITKNGNDWQYDTNGELAKGLRQDSNGKLRYFDLTTGIQAKGQFVTIGQETYYFSKDHGDAQLLPMVTEGHYGTITLKQGQDTKTAWVYRDQNNTILKGLQNINGTLQFFDPYTGEQLKGGVAKYDDKLFYFESGKGNLVSTVAGDYQDGHYISQDGQTRYADKQNQLVKGLVTVNGALQYFDNATGNQIKNQQVIVDGKTYYFDDKGNGEYLFTNTLDMSTNAFSTKNVAFNHDSSSFDHTVDGFLTADTWYRPKSILANGTTWRDSTDKDMRPLITVWWPNKNVQVNYLNFMKANGLLTTAAQYTLHSDQYDLNQAAQDVQVAIERRIASEHGTDWLQKLLFESQNNNPSFVKQQFIWNKDSEYHGGGDAWFQGGYLKYGNNPLTPTTNSDYRQPGNAFDFLLANDVDNSNPVVQAENLNWLHYLMNFGTITAGQDDANFDSIRIDAVDFIHNDTIQRTYDYLRDAYQVQQSEAKANQHISLVEAGLDAGTSTIHNDALIESNLREAATLSLTNEPGKNKPLTNMLQDVDGGTLITDHTQNSTENQATPNYSIIHAHDKGVQEKVGAAITDATGADWTNFTDEQLKAGLELFYKDQRATNKKYNSYNIPSIYALMLTNKDTVPRMYYGDMYQDDGQYMANKSIYYDALVSLMTARKSYVSGGQTMSVDNHGLLKSVRFGKDAMTANDLGTSATRTEGLGVIIGNDPKLQLNDSDKVTLDMGAAHKNQKYRAVILTTRDGLATFNSDQAPTAWTNDQGTLTFSNQEINGQDNTQIRGVANPQVSGYLAVWVPVGASDNQDARTAATTTENHDGKVLHSNAALDSNLIYEGFSNFQPKATTHDELTNVVIAKNADVFNNWGITSFEMAPQYRSSGDHTFLDSTIDNGYAFTDRYDLGFNTPTKYGTDGDLRATIQALHHANMQVMADVVDNQVYNLPGKEVVSATRAGVYGNDDATGFGTQLYVTNSVGGGQYQEKYAGQYLEALKAKYPDLFEGKAYDYWYKNYANDGSNPYYTLSHGDRESIPADVAIKQWSAKYMNGTNVLGNGMGYVLKDWHNGQYFKLDGDKSTLPQI
B2: ΔN123-GBD-CD2 branching sucrase (Leuconostoc mesenteroides; F2136L/W2135S) (protein)
chain: QAGHYITKNGNDWQYDTNGELAKGLRQDSNGKLRYFDLTTGIQAKGQFVTIGQETYYFSKDHGDAQLLPMVTEGHYGTITLKQGQDTKTAWVYRDQNNTILKGLQNINGTLQFFDPYTGEQLKGGVAKYDDKLFYFESGKGNLVSTVAGDYQDGHYISQDGQTRYADKQNQLVKGLVTVNGALQYFDNATGNQIKNQQVIVDGKTYYFDDKGNGEYLFTNTLDMSTNAFSTKNVAFNHDSSSFDHTVDGFLTADTWYRPKSILANGTTWRDSTDKDMRPLITVWWPNKNVQVNYLNFMKANGLLTTAAQYTLHSDQYDLNQAAQDVQVAIERRIASEHGTDWLQKLLFESQNNNPSFVKQQFIWNKDSEYHGGGDASLQGGYLKYGNNPLTPTTNSDYRQPGNAFDFLLANDVDNSNPVVQAENLNWLHYLMNFGTITAGQDDANFDSIRIDAVDFIHNDTIQRTYDYLRDAYQVQQSEAKANQHISLVEAGLDAGTSTIHNDALIESNLREAATLSLTNEPGKNKPLTNMLQDVDGGTLITDHTQNSTENQATPNYSIIHAHDKGVQEKVGAAITDATGADWTNFTDEQLKAGLELFYKDQRATNKKYNSYNIPSIYALMLTNKDTVPRMYYGDMYQDDGQYMANKSIYYDALVSLMTARKSYVSGGQTMSVDNHGLLKSVRFGKDAMTANDLGTSATRTEGLGVIIGNDPKLQLNDSDKVTLDMGAAHKNQKYRAVILTTRDGLATFNSDQAPTAWTNDQGTLTFSNQEINGQDNTQIRGVANPQVSGYLAVWVPVGASDNQDARTAATTTENHDGKVLHSNAALDSNLIYEGFSNFQPKATTHDELTNVVIAKNADVFNNWGITSFEMAPQYRSSGDHTFLDSTIDNGYAFTDRYDLGFNTPTKYGTDGDLRATIQALHHANMQVMADVVDNQVYNLPGKEVVSATRAGVYGNDDATGFGTQLYVTNSVGGGQYQEKYAGQYLEALKAKYPDLFEGKAYDYWYKNYANDGSNPYYTLSHGDRESIPADVAIKQWSAKYMNGTNVLGNGMGYVLKDWHNGQYFKLDGDKSTLPQI
B3: ΔN123-GBD-CD2 branching sucrase (Leuconostoc mesenteroides; F2163G) (protein)
chain: QAGHYITKNGNDWQYDTNGELAKGLRQDSNGKLRYFDLTTGIQAKGQFVTIGQETYYFSKDHGDAQLLPMVTEGHYGTITLKQGQDTKTAWVYRDQNNTILKGLQNINGTLQFFDPYTGEQLKGGVAKYDDKLFYFESGKGNLVSTVAGDYQDGHYISQDGQTRYADKQNQLVKGLVTVNGALQYFDNATGNQIKNQQVIVDGKTYYFDDKGNGEYLFTNTLDMSTNAFSTKNVAFNHDSSSFDHTVDGFLTADTWYRPKSILANGTTWRDSTDKDMRPLITVWWPNKNVQVNYLNFMKANGLLTTAAQYTLHSDQYDLNQAAQDVQVAIERRIASEHGTDWLQKLLFESQNNNPSFVKQQFIWNKDSEYHGGGDAWFQGGYLKYGNNPLTPTTNSDYRQPGNAGDFLLANDVDNSNPVVQAENLNWLHYLMNFGTITAGQDDANFDSIRIDAVDFIHNDTIQRTYDYLRDAYQVQQSEAKANQHISLVEAGLDAGTSTIHNDALIESNLREAATLSLTNEPGKNKPLTNMLQDVDGGTLITDHTQNSTENQATPNYSIIHAHDKGVQEKVGAAITDATGADWTNFTDEQLKAGLELFYKDQRATNKKYNSYNIPSIYALMLTNKDTVPRMYYGDMYQDDGQYMANKSIYYDALVSLMTARKSYVSGGQTMSVDNHGLLKSVRFGKDAMTANDLGTSATRTEGLGVIIGNDPKLQLNDSDKVTLDMGAAHKNQKYRAVILTTRDGLATFNSDQAPTAWTNDQGTLTFSNQEINGQDNTQIRGVANPQVSGYLAVWVPVGASDNQDARTAATTTENHDGKVLHSNAALDSNLIYEGFSNFQPKATTHDELTNVVIAKNADVFNNWGITSFEMAPQYRSSGDHTFLDSTIDNGYAFTDRYDLGFNTPTKYGTDGDLRATIQALHHANMQVMADVVDNQVYNLPGKEVVSATRAGVYGNDDATGFGTQLYVTNSVGGGQYQEKYAGQYLEALKAKYPDLFEGKAYDYWYKNYANDGSNPYYTLSHGDRESIPADVAIKQWSAKYMNGTNVLGNGMGYVLKDWHNGQYFKLDGDKSTLPQI

Substrate: OC[C@H]1O[C@@](CO)(O[C@H]2O[C@H](CO)[C@@H](O)[C@H](O)[C@H]2O)[C@@H](O)[C@@H]1O
Experiment: sucrose hydrolysis, HPLC-CAD, Michaelis-Menten fit
Assay type: biochemical, Leuconostoc mesenteroides
Conditions: sucrose as sole substrate, 50 mM sodium acetate pH 5.1, 30 °C
From the text: sucrose hydrolysis, HPLC-CAD, Michaelis-Menten fit on ΔN123-GBD-CD2 branching sucrase

Compared with B1, B2 is 3.5-fold lower in Km: 30.5 ± 7.2 mM for the first, 8.8 ± 1.0 mM for the second.

B3 gave a Km of 7.0 ± 1.2 mM.

Going from B1 to B2, the Vmax falls from 77.5 µmol/min/mg to 17.7 µmol/min/mg.

B3 gave a Vmax of 16.8 µmol/min/mg.

Going from B1 to B2, the kcat falls from 162 ± 12.7 s⁻¹ to 36.9 ± 0.9 s⁻¹ (4.4-fold).

B3 showed a kcat of 35.1 ± 0.9 s⁻¹.
